# Data: patent US20250388666A1 (BRIGHAM AND WOMEN S HOSPITAL, published 2025)
# T1: CEACAM1 (Sino Biological) (human, UniProt P13688 35-428, limits assumed)
# T1 construct: may be the same as CEACAM1-HIS; also called hCEACAM1; biotinylated soluble CEACAM1
# T1 sequence: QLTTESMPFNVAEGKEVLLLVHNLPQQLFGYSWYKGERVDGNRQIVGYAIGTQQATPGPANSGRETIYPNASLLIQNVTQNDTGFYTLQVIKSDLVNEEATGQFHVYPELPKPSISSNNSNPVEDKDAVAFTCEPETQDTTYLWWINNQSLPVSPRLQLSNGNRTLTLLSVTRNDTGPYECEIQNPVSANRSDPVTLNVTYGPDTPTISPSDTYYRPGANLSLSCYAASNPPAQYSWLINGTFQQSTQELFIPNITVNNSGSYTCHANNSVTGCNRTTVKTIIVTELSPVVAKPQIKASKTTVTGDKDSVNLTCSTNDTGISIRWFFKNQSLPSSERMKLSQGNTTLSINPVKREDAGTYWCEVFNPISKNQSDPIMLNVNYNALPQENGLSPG
# Target: T1, CEACAM1 (Sino Biological)
# Assay: SPR single-cycle
# In short: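 Humanized affinity-matured IgGs from crude supernatants captured on Protein A to ~100 RU, with CEACAM1 analyte injected at 25–100 nM (three-point, two-fold) in HBS-P+ without regeneration. 200 s association per injection, 300 s single dissociation; reference-channel and blank subtracted.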
Kd,fold better than Parent (KD),Binder
82 nM,1.95 fold,"He17/L2 (antibody, IgG4, V domains shown, IgG4 S241P, kappa) VH: EVQLLESGGGLVQPGGSLRLSCAASGFSFSDYYLYWVRQAPGKGLEWVATISVGGGQTSYADSVKGRFTISRDNSKNTLYLQMNSLRAEDTAMYYCTRARTYGPAWFAYWGQGTLVTVSS VL: DIVMTQSPDSLAVSLGERATINCKSSQSLLNSANQKNYLAWYQQKPGQPPKLLIYFASTRESGVPDRFSGSGSGTDFTLTISSLQAEDVAVYYCQSHYPFPYTFGGGTKVEIK"
135 nM,1.18 fold,"He17/L19 (antibody, IgG4, V domains shown, IgG4 S241P, kappa) VH: EVQLLESGGGLVQPGGSLRLSCAASGFSFSDYYLYWVRQAPGKGLEWVATISVGGGQTSYADSVKGRFTISRDNSKNTLYLQMNSLRAEDTAMYYCTRARTYGPAWFAYWGQGTLVTVSS VL: DIVMTQSPDSLAVSLGERATINCKSSQSLLNSANQKNYLAWYQQKPGQPPKLLIYFASTRESGVPDRFSGSGSGTDFTLTISSLQAEDVAVYYCQSHIYPNFTFGGGTKVEIK"
165 nM,0.96 fold,"He17/L4 #1 (antibody, IgG4, V domains shown, IgG4 S241P, kappa) VH: EVQLLESGGGLVQPGGSLRLSCAASGFSFSDYYLYWVRQAPGKGLEWVATISVGGGQTSYADSVKGRFTISRDNSKNTLYLQMNSLRAEDTAMYYCTRARTYGPAWFAYWGQGTLVTVSS VL: DIVMTQSPDSLAVSLGERATINCKSSQSLLNSANQKNYLAWYQQKPGQPPKLLIYFASTRESGVPDRFSGSGSGTDFTLTISSLQAEDVAVYYCQSHFPYYYTFGGGTKVEIK"
103 nM,1.54 fold,"Parent VH/L4 #1 (antibody, IgG4, V domains shown, IgG4 S241P, kappa) VH: EVQLLESGGGLVQPGGSLRLSCAASGFSFSDYYLYWVRQAPGKGLEWVATISVGGGQTSYADSVKGRFTISRDNSKNTLYLQMNSLRAEDTAMYYCTRGLYYGPAWFAYWGQGTLVTVSS VL: DIVMTQSPDSLAVSLGERATINCKSSQSLLNSANQKNYLAWYQQKPGQPPKLLIYFASTRESGVPDRFSGSGSGTDFTLTISSLQAEDVAVYYCQSHFPYYYTFGGGTKVEIK"
104 nM,1.53 fold,"He17/L17 (antibody, IgG4, V domains shown, IgG4 S241P, kappa) VH: EVQLLESGGGLVQPGGSLRLSCAASGFSFSDYYLYWVRQAPGKGLEWVATISVGGGQTSYADSVKGRFTISRDNSKNTLYLQMNSLRAEDTAMYYCTRARTYGPAWFAYWGQGTLVTVSS VL: DIVMTQSPDSLAVSLGERATINCKSSQSLLNSANQKNYLAWYQQKPGQPPKLLIYFASTRESGVPDRFSGSGSGTDFTLTISSLQAEDVAVYYCQSHYPYPYTFGGGTKVEIK"
81 nM,1.97 fold,"He17/L5 (antibody, IgG4, V domains shown, IgG4 S241P, kappa) VH: EVQLLESGGGLVQPGGSLRLSCAASGFSFSDYYLYWVRQAPGKGLEWVATISVGGGQTSYADSVKGRFTISRDNSKNTLYLQMNSLRAEDTAMYYCTRARTYGPAWFAYWGQGTLVTVSS VL: DIVMTQSPDSLAVSLGERATINCKSSQSLLNSANQKNYLAWYQQKPGQPPKLLIYFASTRESGVPDRFSGSGSGTDFTLTISSLQAEDVAVYYCQSHYPFAFTFGGGTKVEIK"
258 nM,2.14 fold,"He17/L4#2 (antibody, IgG4, V domains shown, IgG4 S241P, kappa) VH: EVQLLESGGGLVQPGGSLRLSCAASGFSFSDYYLYWVRQAPGKGLEWVATISVGGGQTSYADSVKGRFTISRDNSKNTLYLQMNSLRAEDTAMYYCTRARTYGPAWFAYWGQGTLVTVSS VL: DIVMTQSPDSLAVSLGERATINCKSSQSLLNSANQKNYLAWYQQKPGQPPKLLIYFASTRESGVPDRFSGSGSGTDFTLTISSLQAEDVAVYYCQSHYPYPYTFGGGTKVEIK"
70 nM,2.26 fold,"Parent VH/L2 (antibody, IgG4, V domains shown, IgG4 S241P, kappa) VH: EVQLLESGGGLVQPGGSLRLSCAASGFSFSDYYLYWVRQAPGKGLEWVATISVGGGQTSYADSVKGRFTISRDNSKNTLYLQMNSLRAEDTAMYYCTRGLYYGPAWFAYWGQGTLVTVSS VL: DIVMTQSPDSLAVSLGERATINCKSSQSLLNSANQKNYLAWYQQKPGQPPKLLIYFASTRESGVPDRFSGSGSGTDFTLTISSLQAEDVAVYYCQSHYPFPYTFGGGTKVEIK"
99 nM,1.61 fold,"He17/L20 (antibody, IgG4, V domains shown, IgG4 S241P, kappa) VH: EVQLLESGGGLVQPGGSLRLSCAASGFSFSDYYLYWVRQAPGKGLEWVATISVGGGQTSYADSVKGRFTISRDNSKNTLYLQMNSLRAEDTAMYYCTRARTYGPAWFAYWGQGTLVTVSS VL: DIVMTQSPDSLAVSLGERATINCKSSQSLLNSANQKNYLAWYQQKPGQPPKLLIYFASTRESGVPDRFSGSGSGTDFTLTISSLQAEDVAVYYCQSHFPYPLTFGGGTKVEIK"
128 nM,1.24 fold,"He17/Parent VL (antibody, IgG4, V domains shown, IgG4 S241P, kappa) VH: EVQLLESGGGLVQPGGSLRLSCAASGFSFSDYYLYWVRQAPGKGLEWVATISVGGGQTSYADSVKGRFTISRDNSKNTLYLQMNSLRAEDTAMYYCTRARTYGPAWFAYWGQGTLVTVSS VL: not shown"
66 nM,2.42 fold,"Parent VH/L5 (antibody, IgG4, V domains shown, IgG4 S241P, kappa) VH: EVQLLESGGGLVQPGGSLRLSCAASGFSFSDYYLYWVRQAPGKGLEWVATISVGGGQTSYADSVKGRFTISRDNSKNTLYLQMNSLRAEDTAMYYCTRGLYYGPAWFAYWGQGTLVTVSS VL: DIVMTQSPDSLAVSLGERATINCKSSQSLLNSANQKNYLAWYQQKPGQPPKLLIYFASTRESGVPDRFSGSGSGTDFTLTISSLQAEDVAVYYCQSHYPFAFTFGGGTKVEIK"
95 nM,1.68 fold,"He17/L3 (antibody, IgG4, V domains shown, IgG4 S241P, kappa) VH: EVQLLESGGGLVQPGGSLRLSCAASGFSFSDYYLYWVRQAPGKGLEWVATISVGGGQTSYADSVKGRFTISRDNSKNTLYLQMNSLRAEDTAMYYCTRARTYGPAWFAYWGQGTLVTVSS VL: DIVMTQSPDSLAVSLGERATINCKSSQSLLNSANQKNYLAWYQQKPGQPPKLLIYFASTRESGVPDRFSGSGSGTDFTLTISSLQAEDVAVYYCQSHFPFPFTFGGGTKVEIK"
79 nM,2.01 fold,"He17/L6 (antibody, IgG4, V domains shown, IgG4 S241P, kappa) VH: EVQLLESGGGLVQPGGSLRLSCAASGFSFSDYYLYWVRQAPGKGLEWVATISVGGGQTSYADSVKGRFTISRDNSKNTLYLQMNSLRAEDTAMYYCTRARTYGPAWFAYWGQGTLVTVSS VL: DIVMTQSPDSLAVSLGERATINCKSSQSLLNSANQKNYLAWYQQKPGQPPKLLIYFASTRESGVPDRFSGSGSGTDFTLTISSLQAEDVAVYYCQSHYPFSFTFGGGTKVEIK"
98 nM,1.62 fold,"He17/L18 (antibody, IgG4, V domains shown, IgG4 S241P, kappa) VH: EVQLLESGGGLVQPGGSLRLSCAASGFSFSDYYLYWVRQAPGKGLEWVATISVGGGQTSYADSVKGRFTISRDNSKNTLYLQMNSLRAEDTAMYYCTRARTYGPAWFAYWGQGTLVTVSS VL: DIVMTQSPDSLAVSLGERATINCKSSQSLLNSANQKNYLAWYQQKPGQPPKLLIYFASTRESGVPDRFSGSGSGTDFTLTISSLQAEDVAVYYCQSHFPYPFTFGGGTKVEIK"
63 nM,2.53 fold,"Parent VH/L3 (antibody, IgG4, V domains shown, IgG4 S241P, kappa) VH: EVQLLESGGGLVQPGGSLRLSCAASGFSFSDYYLYWVRQAPGKGLEWVATISVGGGQTSYADSVKGRFTISRDNSKNTLYLQMNSLRAEDTAMYYCTRGLYYGPAWFAYWGQGTLVTVSS VL: DIVMTQSPDSLAVSLGERATINCKSSQSLLNSANQKNYLAWYQQKPGQPPKLLIYFASTRESGVPDRFSGSGSGTDFTLTISSLQAEDVAVYYCQSHFPFPFTFGGGTKVEIK"
